The target of data set [1] is T1, EMCV 2A wild type (Encephalomyocarditis virus (EMCV), UniProt P12296 902-1044).
T1 sequence: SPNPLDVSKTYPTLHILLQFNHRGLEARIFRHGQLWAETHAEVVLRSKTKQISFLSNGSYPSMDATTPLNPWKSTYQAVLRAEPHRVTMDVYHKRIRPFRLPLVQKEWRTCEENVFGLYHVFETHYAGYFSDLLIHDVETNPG
Briefly: MST; labelled 2A; MST: 50 mM Tris-HCl pH 7.8, 150 mM NaCl, 10 mM MgCl2, 2 mM DTT, 0.05% Tween 20, 25 C; EMSA: 10 mM Tris-HCl pH 7.4, ~140 mM salt, 2 mM Mg acetate, 1 mM DTT, 5% glycerol, 100 ug/mL tRNA, 37 C; ITC: 50 mM Tris-HCl pH 7.4, 400 mM NaCl, 25 C; tweezers: 20 mM HEPES pH 7.6, 300 mM KCl, 5 mM MgCl2, 5 mM DTT, 0.05% Tween. The settings on record: protein: recombinant; tags: C-terminal GlySerLysHis6; label: 5' fluorophore (Dylight 650 in MST, A647/Cy5 in EMSA); unlabelled when 2A is labelled; stem-loop.

In data set [2] the target is T1, EMCV 2A wild type. Briefly: EMSA; MST: 50 mM Tris-HCl pH 7.8, 150 mM NaCl, 10 mM MgCl2, 2 mM DTT, 0.05% Tween 20, 25 C; EMSA: 10 mM Tris-HCl pH 7.4, ~140 mM salt, 2 mM Mg acetate, 1 mM DTT, 5% glycerol, 100 ug/mL tRNA, 37 C; ITC: 50 mM Tris-HCl pH 7.4, 400 mM NaCl, 25 C; tweezers: 20 mM HEPES pH 7.6, 300 mM KCl, 5 mM MgCl2, 5 mM DTT, 0.05% Tween. Particulars: protein: recombinant; tags: C-terminal GlySerLysHis6; label: 5' Cy5. (In EMSA bound probe runs differently from free probe, usually more slowly.)

For data set [3], the target named is T1, EMCV 2A wild type. Put plainly: EMSA; binding restored; MST: 50 mM Tris-HCl pH 7.8, 150 mM NaCl, 10 mM MgCl2, 2 mM DTT, 0.05% Tween 20, 25 C; EMSA: 10 mM Tris-HCl pH 7.4, ~140 mM salt, 2 mM Mg acetate, 1 mM DTT, 5% glycerol, 100 ug/mL tRNA, 37 C; ITC: 50 mM Tris-HCl pH 7.4, 400 mM NaCl, 25 C; tweezers: 20 mM HEPES pH 7.6, 300 mM KCl, 5 mM MgCl2, 5 mM DTT, 0.05% Tween. The settings on record: protein: recombinant; tags: C-terminal GlySerLysHis6; label: 5' Cy5; pseudoknot-like.

The values below come from paper PMC8660796, “Structural and molecular basis for Cardiovirus 2A protein as a viral gene expression switch”.

Substitutions are numbered along the chain they refer to. Names and notes keep the numbering of the source.

As to AGCGGCAGUGUCAUCAAUGGCUCAAACCCUACUGCCGAA (structured_RNA) [EMCV 4], the binding result in the data set with EMCV 2A wild type [1] is given as “no binding”.

B1: EMCV 3 G7C (structured_RNA)
RNA: GGGUUUUUCAGACUCAACGAGCGGCAGUGUCAUCAAUGGCUCAAACCCUACUGCCGAA
B1: the binding result in the data set with EMCV 2A wild type [2] is “no binding”.

B2: EMCV 3 C37G (structured_RNA)
RNA: B1 RNA with C18G, C48G
Regarding B2, in the data set with EMCV 2A wild type [2], the binding result is reported as “no binding”.

B3: EMCV 3 G7C+C37G (structured_RNA)
RNA: B1 RNA with C48G
Take B3: the binding result in the data set with EMCV 2A wild type [3] is “binds”.
